Experimental data published in patent publication US20250296994A1 (SYSMEX, published 2025).

Target: T1, human Crtac1A (human, UniProt Q9NQ79 28-661)
T1 construct: Recombinant protein (IB control sample) or native protein in human CSF and serum; also called rCrtac1A
T1 sequence: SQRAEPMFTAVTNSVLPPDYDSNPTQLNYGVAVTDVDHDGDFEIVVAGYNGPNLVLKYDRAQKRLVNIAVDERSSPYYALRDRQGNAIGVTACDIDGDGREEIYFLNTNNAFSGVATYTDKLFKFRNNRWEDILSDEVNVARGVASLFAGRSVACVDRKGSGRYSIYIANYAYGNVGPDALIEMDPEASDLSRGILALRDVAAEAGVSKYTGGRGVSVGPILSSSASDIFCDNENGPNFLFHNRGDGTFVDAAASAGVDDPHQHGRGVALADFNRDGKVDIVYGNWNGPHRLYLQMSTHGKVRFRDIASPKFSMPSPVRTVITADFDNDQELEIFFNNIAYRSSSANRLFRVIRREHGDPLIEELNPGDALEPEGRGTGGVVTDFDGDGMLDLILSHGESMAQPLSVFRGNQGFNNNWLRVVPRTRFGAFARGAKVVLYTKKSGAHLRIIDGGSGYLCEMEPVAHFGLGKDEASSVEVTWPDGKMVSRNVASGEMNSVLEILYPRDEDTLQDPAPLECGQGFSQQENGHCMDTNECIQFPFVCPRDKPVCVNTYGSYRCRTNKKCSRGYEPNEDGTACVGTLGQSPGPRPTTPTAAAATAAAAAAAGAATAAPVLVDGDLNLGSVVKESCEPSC
Experiment: immunoblotting (Wes) of denatured recombinant Crtac1A/1B and human CSF
Protocol: Study of specificity of monoclonal antibody to antigen (1) Immunoblotting (IB) analysis using a monoclonal antibody purified from the culture supernatant of hybridomas of clones 1B4 and 15C2 was performed on human cerebrospinal fluid (2 specimens: referred to as CSF1 and CSF2) by simple Western (registered trademark) system Wes (registered trademark) (Protein Simple Corporation). In the analysis by Wes, capillary electrophoresis and IB of the sample were performed fully automatically by the apparatus. Specific operations such as preparation of an electrophoresis sample, preparation of a diluent of a primary antibody, and analysis by an apparatus were performed according to the protocol attached to Wes. As a control sample, recombinant proteins of Crtac1A and Crtac1B were used. These recombinant proteins were prepared in the same manner as in Example 1. For comparison, analysis using an anti-rat LOTUS antibody (ITM, 45-12C) as a primary antibody was also performed.
In FIG. 5, “conventional antibody” represents the anti-rat LOTUS antibody, and “rCrtac1A/1B” represents recombinant proteins of Crtac1A and Crtac1B. […] However, when monoclonal antibodies derived from clones 1B4 and 15C2 were used, a band was not detected. In the electrophoresis sample, the protein in the sample was denatured by addition of a sample buffer and heating.

- binding result: no binding
B1: 15C2 antibody (monoclonal antibody derived from the hybridoma of clone 15C2) (antibody, mouse IgG1, kappa, V domains shown)
VH: EVQLQQFGAELVKPGASVKISCKASGYTFTDYNMDWVKQSHGKSLEWIGDINPNYDSSSYNQKFKGKATLTVDKSSSTAYMELRSLTSEDTAVYYCTRSGGTYWGQGTLVTVSA
VL: DIQMNQSPSSLSASLGDTITITCHASQNINVWLSWYQQKPGNIPKLLIYKASNLHTGVPSRFSGSGSGTGFSLTISSLQPEDIATYYCQQAQSYPRTFGGGTKLEIKR
notes: Mouse IgG1; Used as hybridoma culture supernatant (ELISA) or purified from supernatant (IB, IP); also called anti-Crtac1B antibody; antibody of the present embodiment
